Results from patent publication US20130210709A1 (ANCHOR THERAPEUTICS, published 2013).
Ends that are not written are not given here. * marks the point of attachment. Palmitoyl = CCCCCCCCCCCCCCCC(=O)*

What was measured:
CXCR4 receptor [1] = molecular target: T1, CXCR4 receptor (human, UniProt P61073 1-352); assay: cell-based or functional assay
CXCR4 receptor [2] = molecular target: T1, CXCR4 receptor; assay: cell-based or functional assay; remark: listed apart in the source

T1 sequence (P61073 whole entry): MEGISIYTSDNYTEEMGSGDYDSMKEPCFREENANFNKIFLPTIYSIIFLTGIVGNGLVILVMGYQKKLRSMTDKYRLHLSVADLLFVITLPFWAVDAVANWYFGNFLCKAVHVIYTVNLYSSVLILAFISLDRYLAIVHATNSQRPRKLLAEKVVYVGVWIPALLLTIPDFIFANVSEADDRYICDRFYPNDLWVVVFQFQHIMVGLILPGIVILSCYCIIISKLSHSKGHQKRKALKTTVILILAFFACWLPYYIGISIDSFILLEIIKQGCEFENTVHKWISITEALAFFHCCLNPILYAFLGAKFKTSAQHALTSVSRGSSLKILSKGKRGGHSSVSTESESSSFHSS

B1: CXCR4 i1 loop compound 147 (peptide)
peptide: Palmitoyl-MGYQKKLRSATDKYRL-NH2
SMILES: CCCCCCCCCCCCCCCC(=O)N[C@@H](CCSC)C(=O)NCC(=O)N[C@@H](Cc1ccc(O)cc1)C(=O)N[C@@H](CCC(N)=O)C(=O)N[C@@H](CCCCN)C(=O)N[C@@H](CCCCN)C(=O)N[C@@H](CC(C)C)C(=O)N[C@@H](CCCNC(=N)N)C(=O)N[C@@H](CO)C(=O)N[C@@H](C)C(=O)N[C@H](C(=O)N[C@@H](CC(=O)O)C(=O)N[C@@H](CCCCN)C(=O)N[C@@H](Cc1ccc(O)cc1)C(=O)N[C@@H](CCCNC(=N)N)C(=O)N[C@@H](CC(C)C)C(N)=O)[C@@H](C)O
For B1, the “IC50 (nM), calcium flux, CCRF-CEM” value (CXCR4 receptor [1]) was 54 nM.

B2: CXCR4 i3 loop compound 99 (peptide)
peptide: Palmitoyl-HSKGHQKRKALKTTV-NH2
SMILES: CCCCCCCCCCCCCCCC(=O)N[C@@H](Cc1c[nH]cn1)C(=O)N[C@@H](CO)C(=O)N[C@@H](CCCCN)C(=O)NCC(=O)N[C@@H](Cc1c[nH]cn1)C(=O)N[C@@H](CCC(N)=O)C(=O)N[C@@H](CCCCN)C(=O)N[C@@H](CCCNC(=N)N)C(=O)N[C@@H](CCCCN)C(=O)N[C@@H](C)C(=O)N[C@@H](CC(C)C)C(=O)N[C@@H](CCCCN)C(=O)N[C@H](C(=O)N[C@H](C(=O)N[C@H](C(N)=O)C(C)C)[C@@H](C)O)[C@@H](C)O
B2 was tested, and the “AUC (% of vehicle), chemotaxis, CEM, 1.0 uM” value (“AUC (% of vehicle), chemotaxis” for short) (CXCR4 receptor [2]) was 45 % of vehicle, the “Max (% of vehicle), chemotaxis, CEM, 1.0 uM” value (shortened to “Max (% of vehicle), chemotaxis”) (CXCR4 receptor [2]) was 64.5 % of vehicle and the “Peak Ratio, chemotaxis, CEM, 1.0 uM” value (CXCR4 receptor [2]) was 0.2.

B3: CXCR4 i1 loop compound 148 (peptide)
peptide: Palmitoyl-MGYQKKLRSMADKYRL-NH2
SMILES: CCCCCCCCCCCCCCCC(=O)N[C@@H](CCSC)C(=O)NCC(=O)N[C@@H](Cc1ccc(O)cc1)C(=O)N[C@@H](CCC(N)=O)C(=O)N[C@@H](CCCCN)C(=O)N[C@@H](CCCCN)C(=O)N[C@@H](CC(C)C)C(=O)N[C@@H](CCCNC(=N)N)C(=O)N[C@@H](CO)C(=O)N[C@@H](CCSC)C(=O)N[C@@H](C)C(=O)N[C@@H](CC(=O)O)C(=O)N[C@@H](CCCCN)C(=O)N[C@@H](Cc1ccc(O)cc1)C(=O)N[C@@H](CCCNC(=N)N)C(=O)N[C@@H](CC(C)C)C(N)=O
With B3 the “IC50 (nM), calcium flux, CCRF-CEM” value (CXCR4 receptor [1]) was 298 nM.

B4: CXCR4 i3 loop compound 103 (peptide)
peptide: IIISKLSHSKGHQKRKALKT-NH2
modifications: not fully specified (N-terminus); also: dual lipid, backbone lipid not given here
B4 was tested, and the “AUC (% of vehicle), chemotaxis” value (CXCR4 receptor [2]) was 26.3 % of vehicle, the “Max (% of vehicle), chemotaxis” value (CXCR4 receptor [2]) was 24.4 % of vehicle and the “Peak Ratio, chemotaxis, CEM, 1.0 uM” value (CXCR4 receptor [2]) was 1.

B5: CXCR4 i1 loop compound 146 (peptide)
peptide: Palmitoyl-MGYQKKLRAMTDKYRL-NH2
SMILES: CCCCCCCCCCCCCCCC(=O)N[C@@H](CCSC)C(=O)NCC(=O)N[C@@H](Cc1ccc(O)cc1)C(=O)N[C@@H](CCC(N)=O)C(=O)N[C@@H](CCCCN)C(=O)N[C@@H](CCCCN)C(=O)N[C@@H](CC(C)C)C(=O)N[C@@H](CCCNC(=N)N)C(=O)N[C@@H](C)C(=O)N[C@@H](CCSC)C(=O)N[C@H](C(=O)N[C@@H](CC(=O)O)C(=O)N[C@@H](CCCCN)C(=O)N[C@@H](Cc1ccc(O)cc1)C(=O)N[C@@H](CCCNC(=N)N)C(=O)N[C@@H](CC(C)C)C(N)=O)[C@@H](C)O
B5 was tested, and the “IC50 (nM), calcium flux, CCRF-CEM” value (CXCR4 receptor [1]) was 170 nM.

B6: CXCR4 i3 loop compound 105 (peptide)
peptide: KLSHSKGHQKRKALKTTVIL-NH2
modifications: not fully specified (N-terminus); also: dual lipid, backbone lipid not given here
B6 was tested, and the “AUC (% of vehicle), chemotaxis” value (CXCR4 receptor [2]) was 23.8 % of vehicle, the “Max (% of vehicle), chemotaxis” value (CXCR4 receptor [2]) was 42.9 % of vehicle and the “Peak Ratio, chemotaxis, CEM, 1.0 uM” value (CXCR4 receptor [2]) was 0.2.

B7: CXCR4 i3 loop compound 97 (peptide)
peptide: Palmitoyl-HSKGHQKRKALKT-NH2
SMILES: CCCCCCCCCCCCCCCC(=O)N[C@@H](Cc1c[nH]cn1)C(=O)N[C@@H](CO)C(=O)N[C@@H](CCCCN)C(=O)NCC(=O)N[C@@H](Cc1c[nH]cn1)C(=O)N[C@@H](CCC(N)=O)C(=O)N[C@@H](CCCCN)C(=O)N[C@@H](CCCNC(=N)N)C(=O)N[C@@H](CCCCN)C(=O)N[C@@H](C)C(=O)N[C@@H](CC(C)C)C(=O)N[C@@H](CCCCN)C(=O)N[C@H](C(N)=O)[C@@H](C)O
For B7, the “AUC (% of vehicle), chemotaxis” value (CXCR4 receptor [2]) was 48.9 % of vehicle, the “Max (% of vehicle), chemotaxis” value (CXCR4 receptor [2]) was 54.7 % of vehicle and the “Peak Ratio, chemotaxis, CEM, 1.0 uM” value (CXCR4 receptor [2]) was 0.2.

B8: CXCR4 i3 loop compound 101 (peptide)
peptide: Palmitoyl-SKLSHSKGHQKRKALK-NH2
SMILES: CCCCCCCCCCCCCCCC(=O)N[C@@H](CO)C(=O)N[C@@H](CCCCN)C(=O)N[C@@H](CC(C)C)C(=O)N[C@@H](CO)C(=O)N[C@@H](Cc1c[nH]cn1)C(=O)N[C@@H](CO)C(=O)N[C@@H](CCCCN)C(=O)NCC(=O)N[C@@H](Cc1c[nH]cn1)C(=O)N[C@@H](CCC(N)=O)C(=O)N[C@@H](CCCCN)C(=O)N[C@@H](CCCNC(=N)N)C(=O)N[C@@H](CCCCN)C(=O)N[C@@H](C)C(=O)N[C@@H](CC(C)C)C(=O)N[C@@H](CCCCN)C(N)=O
B8 was tested, and the “AUC (% of vehicle), chemotaxis” value (CXCR4 receptor [2]) was 75.5 % of vehicle, the “Max (% of vehicle), chemotaxis” value (CXCR4 receptor [2]) was 74.9 % of vehicle and the “Peak Ratio, chemotaxis, CEM, 1.0 uM” value (CXCR4 receptor [2]) was 1.

B9: CXCR4 i3 loop compound 96 (peptide)
peptide: Palmitoyl-SHSKGHQKRKALK-NH2
SMILES: CCCCCCCCCCCCCCCC(=O)N[C@@H](CO)C(=O)N[C@@H](Cc1c[nH]cn1)C(=O)N[C@@H](CO)C(=O)N[C@@H](CCCCN)C(=O)NCC(=O)N[C@@H](Cc1c[nH]cn1)C(=O)N[C@@H](CCC(N)=O)C(=O)N[C@@H](CCCCN)C(=O)N[C@@H](CCCNC(=N)N)C(=O)N[C@@H](CCCCN)C(=O)N[C@@H](C)C(=O)N[C@@H](CC(C)C)C(=O)N[C@@H](CCCCN)C(N)=O
With B9 the “AUC (% of vehicle), chemotaxis” value (CXCR4 receptor [2]) was 34.2 % of vehicle, the “Max (% of vehicle), chemotaxis” value (CXCR4 receptor [2]) was 63.1 % of vehicle and the “Peak Ratio, chemotaxis, CEM, 1.0 uM” value (CXCR4 receptor [2]) was 1.

B10: CXCR4 i3 loop compound 104 (peptide)
peptide: Palmitoyl-IIISKLSHSKGHQKRKALKT
modifications: not fully specified (C-terminus); also: dual lipid, second lipid position not given here
B10 was tested, and the “AUC (% of vehicle), chemotaxis” value (CXCR4 receptor [2]) was 36.4 % of vehicle, the “Max (% of vehicle), chemotaxis” value (CXCR4 receptor [2]) was 56.4 % of vehicle and the “Peak Ratio, chemotaxis, CEM, 1.0 uM” value (CXCR4 receptor [2]) was 0.2.

B11: CXCR4 i3 loop compound 100 (peptide)
peptide: Palmitoyl-HSKGHQKRKALKTTVI-NH2
SMILES: CCCCCCCCCCCCCCCC(=O)N[C@@H](Cc1c[nH]cn1)C(=O)N[C@@H](CO)C(=O)N[C@@H](CCCCN)C(=O)NCC(=O)N[C@@H](Cc1c[nH]cn1)C(=O)N[C@@H](CCC(N)=O)C(=O)N[C@@H](CCCCN)C(=O)N[C@@H](CCCNC(=N)N)C(=O)N[C@@H](CCCCN)C(=O)N[C@@H](C)C(=O)N[C@@H](CC(C)C)C(=O)N[C@@H](CCCCN)C(=O)N[C@H](C(=O)N[C@H](C(=O)N[C@H](C(=O)N[C@H](C(N)=O)[C@@H](C)CC)C(C)C)[C@@H](C)O)[C@@H](C)O
For B11, the “AUC (% of vehicle), chemotaxis” value (CXCR4 receptor [2]) was 49.3 % of vehicle, the “Max (% of vehicle), chemotaxis” value (CXCR4 receptor [2]) was 49.8 % of vehicle and the “Peak Ratio, chemotaxis, CEM, 1.0 uM” value (CXCR4 receptor [2]) was 0.04.
